The record followed here is patent US20220000983A1 (UNITED STATES GOVERNMENT AS REPRESENTED BY THE DEPARTMENT …, published 2022).

By IC50 is commonly meant the concentration at which inhibition is half-maximal. Low readings indicate higher potency, high ones lower potency.

Starred links: 1 amine or outer side, 2 acyl side, 3 side chain; linkers in the order of their positions; H or OH if unused. Non-standard residues stand in square brackets, D forms with d. No end group written: not given here. *: point of attachment. Tyr(Me) = O-methyltyrosine, COc1ccc(C[C@H](N[*:1])C(=O)[*:2])cc1; Phenylacetyl(2,3,4,5,6-F5) = O=C(Cc1c(F)c(F)c(F)c(F)c1F)*; Phe(F5) = N[C@@H](Cc1c(F)c(F)c(F)c(F)c1F)C(=O)O; Phe(4-Cl) = N[C@@H](Cc1ccc(Cl)cc1)C(=O)O; hArg = N=C(N)NCCCC[C@H](N)C(=O)O; Nle = CCCC[C@H](N)C(=O)O; Orn = NCCC[C@H](N)C(=O)O; Abu = CC[C@H](N)C(=O)O; Ada = not defined here; Amp = not defined here; Cpa = not defined here; PhAc = O=C(Cc1ccccc1)*; Aoc = NCCCCCCCC(=O)O

Test [1] concerns the target GHRH receptor (membrane GHRH-receptors on human anterior pituitary cells) (human) (UniProt Q02643). The test can be described thus: competitive radioligand binding; displacement of 125I-[His1,Nle27]-hGH-RH(1-32)NH2 (0.2 nM) from human pituitary membrane fractions.
The target of test [2] is T1, GHRH receptor on rat pituitary cells (rat, UniProt Q02644 23-464).
T1 sequence (looked up): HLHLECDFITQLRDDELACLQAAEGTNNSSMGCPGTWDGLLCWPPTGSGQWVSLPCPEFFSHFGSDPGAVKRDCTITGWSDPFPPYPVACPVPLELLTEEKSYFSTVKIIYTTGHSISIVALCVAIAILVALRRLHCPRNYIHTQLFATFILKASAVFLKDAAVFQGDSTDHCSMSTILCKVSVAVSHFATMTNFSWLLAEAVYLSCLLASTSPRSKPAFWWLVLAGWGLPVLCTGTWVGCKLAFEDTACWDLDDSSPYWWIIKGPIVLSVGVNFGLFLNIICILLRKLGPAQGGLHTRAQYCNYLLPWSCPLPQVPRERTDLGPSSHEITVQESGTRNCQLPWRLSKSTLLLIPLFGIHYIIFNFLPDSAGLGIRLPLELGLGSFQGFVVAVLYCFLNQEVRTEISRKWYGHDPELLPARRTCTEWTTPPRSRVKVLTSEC
As to the kind of experiment: cell-based or functional assay.

In test [3] the target is T2, GHRH receptor (membrane GHRH-receptors on human anterior pituitary cells) (human, UniProt Q02643 23-423).
T2 construct: whole, on cells; Native receptor in membrane fractions prepared from bought human pituitary (National Hormone and Peptide Program), not a recombinant construct; also called pituitary type GHRH-receptor; pGHRH-R
T2 sequence (looked up): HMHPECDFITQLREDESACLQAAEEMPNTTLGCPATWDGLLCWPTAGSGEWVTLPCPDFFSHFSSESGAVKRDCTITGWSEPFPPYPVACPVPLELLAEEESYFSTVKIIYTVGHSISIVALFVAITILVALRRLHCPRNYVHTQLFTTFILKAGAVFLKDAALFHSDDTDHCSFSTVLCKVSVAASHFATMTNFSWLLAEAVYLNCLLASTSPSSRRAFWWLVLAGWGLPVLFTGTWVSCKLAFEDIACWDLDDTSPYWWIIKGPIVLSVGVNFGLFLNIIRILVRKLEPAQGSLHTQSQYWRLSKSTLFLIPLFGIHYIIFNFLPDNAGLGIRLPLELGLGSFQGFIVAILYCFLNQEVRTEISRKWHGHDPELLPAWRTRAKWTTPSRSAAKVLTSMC
As to the kind of experiment: competitive radioligand binding; displacement of 125I-[His1,Nle27]-hGH-RH(1-32)NH2 (0.2 nM) from human pituitary membrane fractions. As for the experimental part:
Receptor binding affinities in vitro. Preparation of human pituitary membrane fractions and receptor binding of analogs of GH-RH were performed (Halmos G, Rekasi Z, Szoke B, Schally A V. (1993) Receptor 3:87-97). Human pituitary was purchased from the National Hormone and Peptide Program. […] The values were calculated from technical duplicate tubes.
Nineteen new AVR analogs of GHRH were tested in the receptor binding assay. Table 6 presents the IC₅₀ values of GHRH antagonists to membrane GHRH-receptors binding on human anterior pituitary cells.
(Displacement assays read how much labelled ligand stays bound in the presence of the test substance.)

As to AVR-332 (peptide), the IC50 in test [1] came to 0.34 nM.

For the molecule MIA-602 (peptide), the Relative GH release (relative to control (1.00)) in test [2] stood at 0.78. Also, the 50% inhibitory concentration (IC50) in test [1] is 0.27 nM.

AVR-540 (peptide) gave a Relative GH release (relative to control (1.00)) in test [2] of 0.88.

B1: AVR-353 (peptide)
peptide: {Phenylacetyl(2,3,4,5,6-F5)-Ada}-Y[dR]DAI[Phe(4-Cl)]TA[hArg][Phe(F5)]RKVL[Abu]QLSARKLLQDI[Nle][dR][hArg]-{Ada-NH2}
modifications: reading uncertain
notes: Synthetic GHRH antagonist
B1: in test [2], the “Relative GH release” value is 0.65 relative to control (1.00). Besides, the IC50 in test [3] is 0.11 nM.

B2: AVR-235 (peptide)
peptide: {Phenylacetyl(2,3,4,5,6-F5)-Ada}-Y[dR]DAI[Phe(F5)]TA[hArg][Tyr(Me)]RKVL[Abu]QLSARKLLQDI[Nle][dR]-NHMe
modifications: reading uncertain
B2: the “Relative GH release” value in test [2] was 0.6 relative to control (1.00). The molecule also had an IC50 in test [3] of 0.49 nM.

B3: AVR-234 (peptide)
peptide: {PhAc-Ada}-Y[dR]DAI[Phe(4-Cl)]TNR[Tyr(Me)]RKVL[Abu]QLSARKLLQDI[Nle][dR][hArg]-NHMe
modifications: reading uncertain
notes: Synthetic GHRH antagonist
As for B3, the IC50 in test [3] came out at 0.45 nM.

B4: AVR-201 (peptide)
peptide: {PhAc-Ada}-Y[dR]DAI[Cpa]TAR[Amp]RKVL[Abu]QLSAH[Orn]LLQDI[Nle][dR][hArg]-NHMe
modifications: reading uncertain
notes: Synthetic GHRH antagonist
Take B4: in test [3], the half-inhibitory concentration (IC50) was determined as 0.61 nM. This IC50 and that of the molecule before are within 1.5-fold of each other.

B5: AVR-542 (peptide)
peptide: {Phenylacetyl(2,3,4,5,6-F5)-Ada}-Y[dR]DAI[Cpa]TA[hArg][Phe(F5)]H[Orn]VL[Abu]QLSAH[Orn]LLQDI[Nle][dR][hArg]-NHMe
modifications: reading uncertain
In test [3], B5 had a half-inhibitory concentration (IC50) of 0.21 nM.

B6: AVR-104 (peptide)
peptide: {PhAc-Ada}-Y[dR]DAI[Phe(4-Cl)]TAR[Tyr(Me)]RKVL[Abu]QLSAH[Orn]LLQDI[Nle][dR][hArg]-NH2
modifications: reading uncertain
notes: Synthetic GHRH antagonist
With B6, in test [3], the IC50 was 0.59 nM. This IC50 is about 2.8-fold higher than that of the molecule before.

B7: AVR-120 (peptide)
peptide: {dF-Ada}-Y[dR]DAI[Phe(4-Cl)]TAR[Tyr(Me)]RKVL[Abu]QLSAH[Orn]LLQDI[Nle][dR][hArg]-NH2
modifications: reading uncertain
notes: Synthetic GHRH antagonist
Consider B7, for which the half-inhibitory concentration (IC50) in test [3] turned out to be 0.48 nM.

B8: AVR-620 (peptide)
peptide: {Phenylacetyl(2,3,4,5,6-F5)-Ada}-Y[dR]DAI[Cpa]TNR[Tyr(Me)]RKVL[Abu]QLSAH[Orn]LLQDI[Nle][dR][hArg]-{Ada-NH2}
modifications: reading uncertain
notes: Synthetic GHRH antagonist
For the molecule B8, in test [3], the IC50 was 0.31 nM.

B9: AVR-322 (peptide)
peptide: {Phenylacetyl(2,3,4,5,6-F5)-Ada}-Y[dR]DAI[Phe(4-Cl)]TN[hArg][Tyr(Me)]RKVL[Abu]QLSARKLLQDI[Nle][dR][hArg]-{Aoc-NHMe}
modifications: reading uncertain
notes: Synthetic GHRH antagonist
The molecule B9 had an IC50 in test [3] of 0.25 nM.

B10: AVR-553 (peptide)
peptide: {Phenylacetyl(2,3,4,5,6-F5)-Ada}-Y[dR]DAI[Phe(F5)]TA[hArg][Tyr(Me)]H[Orn]VL[Abu]QLSAH[Orn]LLQDI[Nle][dR][hArg]-{Ada-NH2}
modifications: reading uncertain
notes: Synthetic GHRH antagonist
With B10, in test [2], the “Relative GH release” value is 0.82 relative to control (1.00). The IC50 in test [3] worked out at 0.15 nM.

B11: AVR-321 (peptide)
peptide: {PhAc-Ada}-Y[dR]DAI[Phe(4-Cl)]TN[hArg][Tyr(Me)]RKVL[Abu]QLSARKLLQDI[Nle][dR][hArg]-{Aoc-NHMe}
modifications: reading uncertain
notes: Synthetic GHRH antagonist
B11 had an IC50 in test [3] of 0.23 nM.

B12: AVR-107 (peptide)
peptide: {PhAc-Ada}-Y[dR]DAI[Cpa]TARYRKVL[Abu]QLSARKLLQDI[Nle][dR][hArg]-NH2
modifications: reading uncertain
notes: Synthetic GHRH antagonist
The molecule B12 gave a 50% inhibitory concentration (IC50) in test [3] of 0.61 nM.

B13: AVR-352 (peptide)
peptide: {Phenylacetyl(2,3,4,5,6-F5)-Ada}-Y[dR]DAI[Phe(F5)]TA[hArg][Tyr(Me)]RKVL[Abu]QLSARKLLQDI[Nle][dR][hArg]-{Ada-NH2}
modifications: not fully specified; reading uncertain
B13: in test [2], the “Relative GH release” value was 0.72 relative to control (1.00). For the same molecule, the IC50 in test [3] was determined as 0.09 nM.

B14: AVR-552 (peptide)
peptide: {Phenylacetyl(2,3,4,5,6-F5)-Ada}-Y[dR]DAI[Cpa]TA[hArg][Phe(F5)]H[Orn]VL[Abu]QLSAH[Orn]LLQDI[Nle][dR][hArg]-{Ada-NH2}
modifications: reading uncertain
notes: Synthetic GHRH antagonist
Regarding B14, the IC50 in test [3] came to 0.17 nM. This counts as sub-nanomolar.

B15: MIA-690 (peptide)
chain: {PhAc-Ada}-Y[dR]DAI[Cpa]TA[hArg][Phe(F5)]H[Orn]VL[Abu]QLSAH[Orn]LLQDI[Nle][dR][hArg]-NH2
modifications: reading uncertain
B15 registered an IC50 in test [3] of 0.53 nM.

B16: AVR-354 (peptide)
peptide: {Phenylacetyl(2,3,4,5,6-F5)-Ada}-Y[dR]DAI[Phe(4-Cl)]TA[hArg][Phe(F5)]RKVL[Abu]QLSARKLLQDI[Nle][dR][hArg]
modifications: not fully specified (C-terminus); reading uncertain
As to B16, in test [2], the “Relative GH release” value is 0.9 relative to control (1.00). The molecule also yielded an IC50 in test [3] of 0.14 nM.

B17: AVR-333 (peptide)
peptide: {Phenylacetyl(2,3,4,5,6-F5)-Ada}-Y[dR]DAI[Phe(4-Cl)]TN[hArg][Tyr(Me)]RKVL[Abu]QLSARKLLQDI[Nle][dR][hArg]-{Ada-NH2}
modifications: reading uncertain
notes: Synthetic GHRH antagonist
B17: the “Relative GH release” value in test [2] was 0.88 relative to control (1.00). Further, in test [3], the IC50 is 0.3 nM.

B18: AVR-116 (peptide)
peptide: {PhAc-Ada}-Y[dR]DAI[Phe(4-Cl)]TAR[Phe(F5)]RKVL[Abu]QLSAH[Orn]LLQDI[Nle][dR][hArg]-NH2
modifications: reading uncertain
notes: Synthetic GHRH antagonist
As to B18, the IC50 in test [3] was found to be 0.5 nM.

B19: AVR-543 (peptide)
peptide: {Phenylacetyl(2,3,4,5,6-F5)-Ada}-Y[dR]DAI[Cpa]TA[hArg][Phe(F5)]H[Orn]VL[Abu]QLSAH[Orn]LLQDI[Nle][dR][hArg]-{Ada-NHMe}
modifications: reading uncertain
notes: Synthetic GHRH antagonist
In the case of B19, in test [2], the “Relative GH release” value was 1.1 relative to control (1.00). For the same molecule, in test [3], the IC50 amounted to 0.25 nM.
